Results as given in patent publication US20050084890A1, “High-throughput screening assay for inhibitors of replication protein A” (priority 2003, published 2005).

Legend:
RPA = biological target: T1, RPA (Homo sapiens, UniProt P27694); test: Homogeneous high-throughput fluorescence assay of RPA's DNA binding activity (96-well); conditions: blind experiment; 5, 25 or 50 pmol competitor in 3 of 96 wells
T1 construct: made in house; host or cells: Escherichia coli
Protocol: Specifically, the percentage inhibition is calculated by taking the difference between the fluorescence values of reactions containing DNA and RPA and reactions containing DNA, RPA, and the test compound and dividing by the difference between the fluorescence values of reactions with DNA and RPA and the fluorescence of the DNA alone. This value is then multiplied by 100 to give percentage inhibition. The measurement is typically reported as fluorescence above the background fluorescence of the reporter alone. In one aspect the of the assay the DNA is single stranded DNA.
In accordance with one exemplary embodiment of the present invention, a homogeneous high-throughput screening assay is provided that employs a novel fluorescent reporter for measuring RPA's DNA binding activity. […] The fluorescence is then quantified in a 96-well plate fluorescence spectrophotometer. […]
RPA (10 pmol) was added to each well of a 96-well plate in a volume of 100 μl. […] Plates were read in a fluorometer. Fluorescence emission was read at 518 nm following excitation at […]. Fluorescence was read using a 96-well plate reader with a 2.5 nm excitation slit width and a 5 nm emission slit width. […] The data is presented as fluorescence above the background fluorescence of the reporter alone unless indicated otherwise. […]

[1] = biological target: T2, Replication Protein A (RPA) (Homo sapiens, UniProt P27694;P15927;P35244 P27694:1-616,P15927:1-270,P35244:1-121); test: competition; 5, 25 or 50 pmol unlabeled DNA inhibits RPA binding to the fluorescein-labeled reporter; conditions: tags: expressed in E. coli from vector pdT11 (Marc Wold)
T2 sequence (P27694 whole entry, chain 1 of 3): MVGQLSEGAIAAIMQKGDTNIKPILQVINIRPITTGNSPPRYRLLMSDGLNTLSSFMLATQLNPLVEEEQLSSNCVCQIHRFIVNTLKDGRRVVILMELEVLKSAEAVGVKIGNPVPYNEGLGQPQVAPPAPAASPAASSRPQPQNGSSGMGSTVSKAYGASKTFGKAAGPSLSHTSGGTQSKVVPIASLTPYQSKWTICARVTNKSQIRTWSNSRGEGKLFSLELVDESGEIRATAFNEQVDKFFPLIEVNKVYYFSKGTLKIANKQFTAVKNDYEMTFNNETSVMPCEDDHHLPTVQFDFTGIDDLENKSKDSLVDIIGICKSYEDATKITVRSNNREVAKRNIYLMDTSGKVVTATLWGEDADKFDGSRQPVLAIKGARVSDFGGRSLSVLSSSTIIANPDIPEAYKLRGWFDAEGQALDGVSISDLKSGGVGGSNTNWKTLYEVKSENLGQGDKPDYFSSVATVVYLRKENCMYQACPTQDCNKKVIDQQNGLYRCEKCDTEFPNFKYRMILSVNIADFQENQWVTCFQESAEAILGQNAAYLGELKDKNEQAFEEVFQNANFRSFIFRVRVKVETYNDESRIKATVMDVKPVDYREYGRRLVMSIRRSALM
T2 sequence (P15927 whole entry, chain 2 of 3): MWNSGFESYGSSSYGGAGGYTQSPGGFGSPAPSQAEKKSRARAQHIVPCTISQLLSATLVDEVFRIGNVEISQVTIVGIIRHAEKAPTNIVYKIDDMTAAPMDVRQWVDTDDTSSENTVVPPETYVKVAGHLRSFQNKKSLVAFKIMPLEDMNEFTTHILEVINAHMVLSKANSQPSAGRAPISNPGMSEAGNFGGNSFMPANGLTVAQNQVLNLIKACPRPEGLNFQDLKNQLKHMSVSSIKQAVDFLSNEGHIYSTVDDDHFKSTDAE
T2 sequence (P35244 whole entry, chain 3 of 3): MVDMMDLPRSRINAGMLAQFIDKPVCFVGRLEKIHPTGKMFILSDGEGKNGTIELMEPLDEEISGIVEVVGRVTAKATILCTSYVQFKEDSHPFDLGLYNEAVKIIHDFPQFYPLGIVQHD
Protocol: RPA (10 pmol) was added to each well of a 96-well plate in a volume of 100 μl. Individual compounds were added to each well followed by the fluorescent reporter. The final reaction volume was 200 μl. Plates were read in a fluorometer. Fluorescence emission was read at 518 nm following excitation at […]. Fluorescence was read using a 96-well plate reader with a 2.5 nm excitation slit width and a 5 nm emission slit width. To calculate the percentage inhibition, the difference between the fluorescence values of reactions containing DNA and RPA and […] the test compound was divided by the difference between the fluorescence values of reactions with DNA and RPA and the fluorescence of the DNA alone. This value was then multiplied by 100 to give percentage inhibition. The data is presented as fluorescence above the background fluorescence of the reporter alone unless indicated otherwise.
To determine the effectiveness of this assay, a blind experiment was performed in which 3 of the 96 wells were added to 5, 25, or 50 pmol DNA substrate that has the exact sequence of the fluorescent DNA reporter without the fluorescein label. This DNA would compete for RPA, therefore acting as an inhibitor. […] The effect of DMSO on reaction sensitivity and reproducibility was assessed and the results indicated no difference in assay sensitivity.

[2] = biological target: T2, Replication Protein A (RPA); test: fluorescence enhancement (ex 498 nm, em 518 nm); hyperbolic curve saturating at 1:1 RPA:DNA; conditions: tags: expressed in E. coli from vector pdT11 (Marc Wold); label: 5' fluorescein
Protocol: In an effort to investigate the effect small molecules have on the interaction of RPA with DNA, an HTS assay was developed that relies on the use of a fluorescein-labeled ssDNA substrate. […] In an effort to optimize the detection, fluorescent excitation and emission wavelengths were tested along with varying slit widths and voltages. The optimal parameters were excitation at 498 nm and emission at […]. The optimal excitation and emission slit widths and voltage were 2.5 and 5 nm and 800 V, respectively.
In an attempt to test a large number of compounds simultaneously, the assay was converted to a 96-well plate format. In this assay, the fluorescein-labeled DNA was diluted into assay buffer and 100 μl were dispensed into each well. The fluorescence of each well was then read. Each well then received 100 μl RPA and the fluorescence of each well was read again. Percentage increase of fluorescence was then calculated from these two readings and is represented in FIG. 1.

[3] = biological target: T2, Replication Protein A (RPA); test: FP; polarization r max 0.23 without compound; saturation at about 15 pmol RPA in control as printed; conditions: tags: expressed in E. coli from vector pdT11 (Marc Wold); label: fluorescein
Protocol: To more precisely determine if the method of inhibition was via an interaction with DNA or RPA, fluorescence polarization experiments were conducted. Fluorescence polarization is a measure of the rate at which an object tumbles or rotates in three-dimensional space. In this experiment, a fluorescein-labeled dT₃₀ substrate DNA is employed which results in a baseline polarization that is increased upon RPA binding; to the DNA and slowing its rotation. Using this method, it can be determined if the interaction of the compound was with DNA or RPA by constructing binding isotherms varying RPA at a fixed concentration of DNA with and without the addition of specific compounds. Using fluorescence polarization, compounds that exert their inhibitory effect through an interaction with the DNA were capable of being identified. Fluorescence polarization was performed by titrating RPA into a reaction containing fluorescein-labeled dT₃₀ DNA in the presence and absence of 20 μM compound (FIG. 5). […] This conclusion is further supported by experiments performed measuring the effect of compound 1:51 on polarization of the DNA in the absence of RPA. In these reactions, the r value of the DNA plus compound was slightly greater than the r value of the DNA without compound.

T1 sequence (P27694 whole entry): as the sequence (P27694 whole entry, chain 1 of 3) above
T1 sequence (P15927 whole entry partner): as the sequence (P15927 whole entry, chain 2 of 3) above
T1 sequence (P35244 whole entry partner): as the sequence (P35244 whole entry, chain 3 of 3) above

DNA substrate that has the exact sequence of the fluorescent DNA reporter without the fluorescein label: unlabeled 30 base ssDNA of SEQ ID NO: 1 sequence, competes for RPA, acting as an inhibitor (DNA GGGGAAGTAAGGACGCGGAAAGGATAGGGG; DNA, backbone not given here; unlabeled competitor ssDNA)
inhibition of RPA binding to the fluorescein-labeled DNA (RPA): significant inhibition

B1: 30-base unlabeled competitor DNA (ssDNA)
DNA: GGGGAAGTAAGGACGCGGAAAGGATAGGGG
binding result [1]: binds

B2: 30-base purine-rich reporter DNA (ssDNA)
DNA: B1 DNA
binding result [2]: binds

B3: dT30 (ssDNA)
DNA: TTTTTTTTTTTTTTTTTTTTTTTTTTTTTT
modifications: [NONE]
binding result [3]: binds
